Nine molecules from patent US20110293610A1 (published 2011) can be followed below.

Experiment [1] concerns the target T1, membrane-bound B Lymphocyte Stimulator on U937 plasma membrane preparations (human, UniProt Q9Y275 1-285).
T1 construct: Natural protein in plasma membrane fractions of the human cell line U937 coated on ELISA plates; also called U937 plasma membranes; U937 membranes
Kind of experiment: phage ELISA. A general note: In an ELISA, binding on a coated surface is turned into a signal by an enzyme label.

Experiment [2] deals with T2, B Lymphocyte Stimulator, soluble form (human) (human, UniProt Q9Y275 134-285, biotinylated with NHS-biotin where used as biotinylated B Lymphocyte Stimulator).
T2 construct: Coated on plastic, captured on streptavidin plates, amine-coupled to a CM5 chip or free in solution, depending on the assay; also called BLyS; immobilized B Lymphocyte Stimulator
Kind of experiment: phage competition ELISA on U937 plasma membranes. How it is done: (§1) For each test phage antibody, 3 aliquots of 20 μl 18% marvel/6×PBS were transferred into separate wells of a 96-well plate. The first aliquot was supplemented with His-tagged B Lymphocyte Stimulator to a final concentration of 60 μg/ml. The second aliquot was supplemented with soluble B Lymphocyte Stimulator to a final concentration of 60 μg/ml. The third aliquot was not supplemented with any competing antigen. One hundred μl of phage supernatant was then added to each aliquot and left to block at room temperature for 1 hour.
(§2) The antigen-coated plates were washed once with PBS before the addition of 200 μl/well 3% marvel/PBS. These plates were left to block at 37° C. for 1 hour and were then washed once with PBS. Duplicate samples of 50 μl pre-blocked phage (above) were added to the antigen-coated plates and left at room temperature for 1 hour. Plates were washed 3× with PBS/0.1% Tween 20, then 3× with PBS. Fifty μl/well mouse anti-M13 HRP (Pharmacia) at 1/5000 in 3% Marvel/PBS was added and left for 1 hour at room temperature. Plates were washed 3 times with PBS/0.1% Tween 20, then 3 times with PBS. Fifty […] HRP-labelled anti-mouse Envision polymer (DAKO) at 1/50 in 3% marvel/PBS was added and left for 1 hour at RT. Plates were washed 3 times with PBS/0.1% Tween 20, then 3 times with PBS. Next, 50 μl/well of TMB (Sigma) was added and plates left to develop for 30 to 60 minutes. When sufficient color has developed, 25 μl/well 0.5M H₂SO₄ was added to stop the reaction. The plates were read at 450 nm on a microtiter plate reader (Bio-Rad 3550).

Experiment [3] addresses T3, HIS-tagged B Lymphocyte Stimulator (human, UniProt Q9Y275 71-285).
T3 construct: Expressed in E. coli from pQE9 and purified; also called histidine-tagged B Lymphocyte Stimulator; HIS-B Lymphocyte Stimulator; not shown: histidine tag of the pQE9 vector
Kind of experiment: phage competition ELISA on U937 plasma membranes. As to the method:
as §1, §2

For experiment [4], the target named is T2, B Lymphocyte Stimulator, soluble form …. Kind of experiment: phage competition ELISA on P388 plasma membranes. As to the method: P388 plasma membranes (50 μl per well) were coated at 10 μg/ml in PBS onto Falcon 96-well plates overnight at 4° C. The method is otherwise essentially as described Example 16.
For experiment [5] the target is unchanged. Kind of experiment: cell-based or functional assay.
For another experiment, the target named is LIGHT (human, UniProt O43557 74-240, limits assumed). Kind of experiment: phage ELISA.
Another experiment deals with T4, Bovine serum albumin (bovine, UniProt P02769 25-607).
T4 construct: also called BSA
Kind of experiment: phage ELISA.

The target in another experiment is T5, TNF-alpha (human, UniProt P01375 77-233).
T5 construct: also called TNFα; TNF-α
Kind of experiment: phage ELISA.

Another experiment addresses T6, TNF-beta (human, UniProt P01374 35-205).
T6 construct: also called TNFβ; Tumour Necrosis Factor-beta
T6 sequence (looked up): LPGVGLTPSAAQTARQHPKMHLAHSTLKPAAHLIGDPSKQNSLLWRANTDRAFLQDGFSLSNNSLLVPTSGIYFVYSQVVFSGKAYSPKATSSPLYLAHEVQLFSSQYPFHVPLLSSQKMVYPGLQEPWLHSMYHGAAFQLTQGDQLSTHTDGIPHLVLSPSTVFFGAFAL
Kind of experiment: phage ELISA.

A further experiment deals with T7, TRAIL (human, UniProt P50591 114-281).
T7 construct: also called TNF-related apoptosis inducing ligand
Kind of experiment: phage ELISA.

Experiment [6] deals with T2, B Lymphocyte Stimulator, soluble form …. Kind of experiment: purified scFv, inhibition of biotinylated BLyS binding to IM9 cells. As to the method: To a separate 96-well plate, titrate test scFvs in MPBS, in triplicate, over a concentration range from 10 μg/ml down to 0.001 μg/ml were added. The final volume of test scFv in each well was 55 μl. […] Plates were then incubated at room temperature for 30 minutes.
Plates were washed three times in PBST and three times in PBS, tapped dry and 50 μl per well added of streptavidin-Delfia (Wallac) at 1:1000 dilution in the Manufacturer's assay buffer. The plates were then incubated at room temperature for 1 hour and washed six times in Delfia wash solution (Wallac). After tapping the plates dry, 100 μl per well of Delfia enhancement solution (Wallac) was added. The plates were gently tapped to encourage micelle formation, incubated at room temperature for 10 minutes, and fluorescence read on a Wallac 1420 workstation at […].

The target in experiment [7] is T8, mouse B Lymphocyte Stimulator (mouse, UniProt Q9WU72 127-309, limits assumed).
T8 construct: also called murine B Lymphocyte Stimulator; immobilized mouse B Lymphocyte Stimulator
Kind of experiment: phage ELISA.

The target in the next experiment is T9, Fas ligand (human, UniProt P48023 134-281, limits assumed).
T9 sequence (looked up): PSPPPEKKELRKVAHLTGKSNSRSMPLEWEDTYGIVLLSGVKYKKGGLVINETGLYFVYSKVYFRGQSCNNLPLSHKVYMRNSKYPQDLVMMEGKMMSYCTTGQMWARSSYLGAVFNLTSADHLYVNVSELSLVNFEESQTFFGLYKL
Kind of experiment: phage ELISA.

T7 sequence (P50591 114-281 limits assumed): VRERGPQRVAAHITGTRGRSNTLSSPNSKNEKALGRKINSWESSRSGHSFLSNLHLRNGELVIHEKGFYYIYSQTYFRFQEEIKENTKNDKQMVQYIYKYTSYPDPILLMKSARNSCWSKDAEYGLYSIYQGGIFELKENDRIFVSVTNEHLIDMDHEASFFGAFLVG
T5 sequence (P01375 77-233 limits assumed): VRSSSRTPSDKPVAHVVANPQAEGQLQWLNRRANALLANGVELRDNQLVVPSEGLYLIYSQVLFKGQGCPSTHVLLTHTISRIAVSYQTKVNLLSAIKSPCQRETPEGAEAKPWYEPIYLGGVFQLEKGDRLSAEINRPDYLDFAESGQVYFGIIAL
T4 sequence (P02769 25-607 limits assumed): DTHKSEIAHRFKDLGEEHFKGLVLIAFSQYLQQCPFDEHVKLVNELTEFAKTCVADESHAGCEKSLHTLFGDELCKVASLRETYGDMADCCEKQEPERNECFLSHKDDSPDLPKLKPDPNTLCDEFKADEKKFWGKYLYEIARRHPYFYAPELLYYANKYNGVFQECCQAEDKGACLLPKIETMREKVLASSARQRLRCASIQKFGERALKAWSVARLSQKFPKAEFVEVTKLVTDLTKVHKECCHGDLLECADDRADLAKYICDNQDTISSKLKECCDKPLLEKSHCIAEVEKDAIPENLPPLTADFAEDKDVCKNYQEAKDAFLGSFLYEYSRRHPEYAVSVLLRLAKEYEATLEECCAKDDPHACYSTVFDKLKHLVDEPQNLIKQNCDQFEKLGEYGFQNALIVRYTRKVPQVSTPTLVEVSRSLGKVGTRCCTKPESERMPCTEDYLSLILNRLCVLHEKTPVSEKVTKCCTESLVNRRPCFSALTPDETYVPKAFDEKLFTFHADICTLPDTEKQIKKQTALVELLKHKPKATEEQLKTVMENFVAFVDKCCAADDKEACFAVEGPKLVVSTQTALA
Chain of LIGHT (O43557 74-240 limits assumed): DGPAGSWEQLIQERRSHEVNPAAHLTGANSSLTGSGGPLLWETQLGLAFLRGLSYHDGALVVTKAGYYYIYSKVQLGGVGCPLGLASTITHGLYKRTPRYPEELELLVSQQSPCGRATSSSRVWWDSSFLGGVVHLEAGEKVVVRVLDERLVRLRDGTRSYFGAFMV
T8 sequence (Q9WU72 127-309 limits assumed): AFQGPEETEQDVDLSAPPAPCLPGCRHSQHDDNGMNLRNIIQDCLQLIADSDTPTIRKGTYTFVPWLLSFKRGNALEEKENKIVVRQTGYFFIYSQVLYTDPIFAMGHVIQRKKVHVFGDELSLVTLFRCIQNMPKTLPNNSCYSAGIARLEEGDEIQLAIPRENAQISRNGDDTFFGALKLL

B1: I080B01 (scFv)
scFv: QVQLVQSGAEVKKPGASVKVSCKASGYTFTNYYMHWVRQAPGQGLEWMGIINPRDVSTTYAQKFQGRATMTRDTSTSTVYMELNSLRSEDTAVYYCAREYSGYHYVEGGSYAMDVWGQGTMVTVSSGGGGSGGGGSGGGGSALSYVLTQPPSASGTPGQRVTITCSGSSSNIGNYYVNWYQQVSGTAPKLIIYRNNQRPSGVPDRFSGSKSGASASLAISGLRSEDEADYFCAAWDDSLREFVFGTGTKVTVLG
As for B1, the binding result is listed as “binds” in [1], “no binding (tested: 60 µg/ml competing antigen)” in [2] and “binds” in experiment [3].

B2: I079F08 (scFv)
scFv: QMQLVQSGGGVVQPGRSLRLSCAASGFTFSSYGMHWVRQAPGKGLEWVAVISYDGSIKYYADSVKGRFTISRDNSKNTLYLQMNSLRAEDTAVYYCARYYYHSSGSDAFDIWGQGTLVTVPSGGGGSGGGGSGGGGSQSVLTQPPSASGTPGQRVTISCSGSSSNIGSNTVNWYQRLPGAAPQLLIYNNNQRPSGVPDRFSGSKSGTSASLAISGLQSEDEADYYCAAWDDSLNGWVFGGGTKLTVLG
Take B2: the binding result was “binds” in experiment [1], “no binding (tested: 60 µg/ml competing antigen)” in experiment [2] and “binds” in [3].

B3: I099D03 (scFv)
scFv: QVQLVQSGAEVKKPGASVRVSCKSSGYTFTNYGISWVRQAPGQGLEWMGWISNNNGKTYYAQKVQGRVTMTTDTSTSTDYMELRGLRSDDTAIYYCARDNGGGTIGFDYWGRGTLVTVSSGGGGSGGGGSGGGGSAQAVLTQPSSVSGAPGQRVTMSCTGSSSNIGAGYDVHWYQQLPGTAPKLLIYDNTNRPSGVPDRFSGSRSGTSASLAITGLQAEDEADYFCQSYDITLSAVFGTGTKVTVLG
Turning to B3, the binding result in [4] is listed as “no binding”.

B4: I116A01 (whole IgG1) (antibody, V domains shown)
VH: QVQLQQSGAEVKKPGSSVRVSCKASGGTFNNNAINWVRQAPGQGLEWMGGIIPMFGTAKYSQNFQGRVAITADESTGTASMELSSLRSEDTAVYYCARSRDLLLFPHHALSPWGRGTMVTVSS
VL: SSELTQDPAVSVALGQTVRVTCQGDSLRSYYASWYQQKPGQAPVLVIYGKNNRPSGIPDRFSGSSSGNTASLTITGAQAEDEADYYCSSRDSSGNHWVFGGGTELTVLG
Take B4: in experiment [5], the “IC50 for the inhibition of human B Lymphocyte Stimulator induced-proliferation of murine B cells (3H-thymidine incorporation)” value stood at 0.06 nM.

B5: I082H08 (scFv)
scFv: EVQLVESGGGLVQPGGSLRLSCAASGFTFSDYGMHWVRQRPGKGLEWIAFIGSDGSNKYYGDTVKGRFTISRDNAKNSLYLQMNSLRAEGTAVYYCARDWDMDVWGQGTMVTVSSGGGGSGGGGSGGGGSSHVILTQPRSVSGSPGQSVTISCTGTSSDVGGYHYVSWYQQHPGKAPRLMIYEVTKRPSGVSNRFSGSKSGNTASLTISGVQAEDEADYYCSSYTSASTVIFGGGTKLTVLG
As to B5, in [4], the binding result is given as “no binding”.

B6: I074B12 (scFv)
scFv: EVQLVQSGAEVKKPGSSVKVSCRASGGSFNHAISWVRQAPGRGLEWMGGILPMYGTANYAQKFQGRVTITADKLTNTVYMDLSRLRYEDTAVYYCARELGLSIVGATTGALDMWGRGTLVTVSSGGGGSGGGGSGGGGSALSYELTQPPSASGTPGQRVTISCSGSTSNIGSNAVNWYRQLPGTAPKLLVYSNNQVPSGVPDRFSGSKSGTSASLAISGLQSEDEADYYCAAWDDSLSGYVFGTGTQLTVLS
With B6, the binding result with LIGHT, with Bovine serum albumin, in the experiment with TNF-alpha, with TNF-beta and in the experiment with TRAIL was “no binding” each time. In experiment [6], the IC50 (as a rule, the concentration needed to halve the response being measured) was 13 nM.

B7: I079E02 (scFv)
scFv: QVQLVQSGAEVKKPGSSVKVSCKASGGTFSSYAISWVRQAPGQGLEWMGGIIPIFGTANYAQKFQGRVTITADKSTSTAYMELSSLRSDDTAVYYCARDSGSYYYDAFDIWGKGTMVTVSSGGGGSGGGGSGGGGSDIVMTQSPSTLSASVGDRVTITCRASQGISSWLAWYQQKPGKAPKLLIYAASSLQSGVPSRFSGSGSGTDFTLTISSLQPEDFATYYCQQANSFPLTFGGGTKVEIKR
As to B7, in experiment [4], the binding result is reported as “no binding”.

B8: I007F11 (scFv)
scFv: GVQLVQSGAEVKKPGASVKVSCKASGYTFTNYGITWVRQTPGQGLEWMGWISAYNGNRNYAQKLQGRVTMTTDTSTSTAYMELRSLRSDDTAVYYCVRDGIDILLVPAALMDVWGQGTMVTVSSGGGGSGGGGSGGGGSQSVLTQPASVSGSPGQSITISCTGTSSDVGGYNYVSWYQQHPGKAPKLMIYEGSKRPSGVSNRFSGSKSGNTASLTISGLQAEDEADYYCSSYTTRSTRVFGGGTKLTVLG
For B8, the binding result (in experiment [7]; with TNF-alpha; with TNF-beta; with Fas ligand; with TRAIL) was “no binding” throughout. The molecule also gave a half-maximal inhibitory concentration (IC50) in experiment [6] of 7.9 nM.

B9: I079B04 (scFv)
scFv: EVQLVESGGGLVQPGGSLRLSCAASGFTFSDYAMSWVRQAPGKGLEWVSAISGSGGSTSYADSVKGRFTISRDNSKNTLYLQMNSLRAEDTAVYYCASLLSDYWGRGTTVTVSSGGGGSGGGGSGGGGSQSVLTQPASVSGSPGQSITISCTGTSSDVGGYNYVSWYQQHPGKAPKLMIYEGSKRPSGVSYRFSGSKSGNTASLTISGLQAEDEADYYCSSYTTRSTRVFGGGTKLTVLG
For B9, the binding result was “binds” in [1], “no binding (tested: 60 µg/ml competing antigen)” in experiment [2] and “binds” in experiment [3].
